{
  "source": "paper PMC5764988",
  "data": [
    {"target": "MagD, the Type II alpha-2-macroglobulin from Pseudomonas aeruginosa (Pseudomonas aeruginosa) (UniProt Q9HVT2)", "assay": "AUC; sedimentation velocity, 35,000 rpm, 20 °C, absorbance at 280 nm; 0.25, 0.5 and 1 mg/mL; 25 mM HEPES pH 7.5, 100 mM NaCl; c(s) analysis with Sedfit; co-purified complexes after analytical gel filtration", "values": [
      {"substance": "MagF (natural protein)", "stoichiometry N": 1},
      {"substance": "MagA (natural protein)", "stoichiometry N": 1},
      {"substance": "MagB (natural protein)", "stoichiometry N": 1}
    ]}
  ]
}
